Data published in the supplement of paper PMC10567573.

B1: TPRG1 (parent)
chain: ETIQGFWLLTKIDHWNNEKERILL

Variants of: B1
Experiment: protein stability index of a GFP-peptide fusion (GPS, HEK-293T) (PSI 1-6); higher = more stable
Settings: c terminus: a fixed tail appended
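Also: lentivirally expressed fusions sorted by FACS into six bins by GFP to DsRed ratio, PSI derived from sequencing read proportions per bin multiplied by bin number.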

| Variant | protein stability index |
| --- | --- |
| ETIQGFWDLTKIDHWNNEKERILL | 2.34 |
| ETIQGFWHLTKIDHWNNEKERILL | 2.04 |
| ETIQGFWKLTKIDHWNNEKERILL | 3.05 |
| ETIQGFWSLTKIDHWNNEKERILL | 1.56 |
| ETIQGFWRLTKIDHWNNEKERILL | 2.26 |
| ETIQGFWWLTKIDHWNNEKERILL | 1.43 |
| ETIQGFWNLTKIDHWNNEKERILL | 1.99 |
| ETIQGFWGLTKIDHWNNEKERILL | 1.61 |
| ETIQGFWELTKIDHWNNEKERILL | 2.42 |
| ETIQGFWYLTKIDHWNNEKERILL | 4.07 |
| ETIQGFWVLTKIDHWNNEKERILL | 2.27 |
| ETIQGFWQLTKIDHWNNEKERILL | 1.53 |
| ETIQGFWTLTKIDHWNNEKERILL | 2.54 |
| ETIQGFWPLTKIDHWNNEKERILL | 1.43 |
| ETIQGFWALTKIDHWNNEKERILL | 2.08 |
| ETIQGFWLLTKCDHWNNEKERILL | 2.08 |
| ETIQGFWLLTKNDHWNNEKERILL | 2.83 |
| ETIQGFWLLTKGDHWNNEKERILL | 1.13 |
| ETIQGFWLLTKMDHWNNEKERILL | 3.11 |
| ETIQGFWLLTKRDHWNNEKERILL | 1.75 |
| ETIQGFWLLTKHDHWNNEKERILL | 1.9 |
| ETIQGFWLLTKADHWNNEKERILL | 3.59 |
| ETIQGFWLLTKKDHWNNEKERILL | 2.07 |
| ETIQGFWLLTKSDHWNNEKERILL | 2.09 |

| Variant | protein stability index |
| --- | --- |
| ETIQGFWLLTKEDHWNNEKERILL | 2.55 |
| ETIQGFWLLTKTDHWNNEKERILL | 1.58 |
| ETIQGFWLSTKIDHWNNEKERILL | 2.88 |
| ETIQGFWLNTKIDHWNNEKERILL | 1.16 |
| ETIQGFWLRTKIDHWNNEKERILL | 1.49 |
| ETIQGFWLQTKIDHWNNEKERILL | 1.65 |
| ETIQGFWLITKIDHWNNEKERILL | 3 |
| ETIQGFWLMTKIDHWNNEKERILL | 2.1 |
| ETIQGFWLETKIDHWNNEKERILL | 2.2 |
| ETIQGFWLHTKIDHWNNEKERILL | 1.87 |
| ETIQGFWLPTKIDHWNNEKERILL | 2.7 |
| ETIQGFWLCTKIDHWNNEKERILL | 2.35 |
| ETIQGFWLDTKIDHWNNEKERILL | 1.58 |
| ETIQGFWLFTKIDHWNNEKERILL | 3.19 |
| ETIQGFWLGTKIDHWNNEKERILL | 2.15 |
| ETIQGFWLTTKIDHWNNEKERILL | 1.33 |
| ETIQGFWLKTKIDHWNNEKERILL | 1.54 |
| ETIQGFWLLTAIDHWNNEKERILL | 1.85 |
| ETIQGFWLLTHIDHWNNEKERILL | 1.76 |
| ETIQGFWLLTGIDHWNNEKERILL | 2.08 |
| ETIQGFWLLTIIDHWNNEKERILL | 2.32 |
| ETIQGFWLLTDIDHWNNEKERILL | 1.93 |
| ETIQGFWLLTFIDHWNNEKERILL | 3.4 |
| ETIQGFWLLTWIDHWNNEKERILL | 2.02 |

| Variant | protein stability index |
| --- | --- |
| ETIQGFWLLTLIDHWNNEKERILL | 1.49 |
| ETIQGFWLLTSIDHWNNEKERILL | 1.71 |
| ETIQGFWLLTRIDHWNNEKERILL | 1.54 |
| ETIQGFWLLTPIDHWNNEKERILL | 2.92 |
| ETIQGFWLLTYIDHWNNEKERILL | 4.47 |
| ETIQGFWLLTKIDHWNNERERILL | 4.12 |
| ETIQGFWLLTKIDHWNNECERILL | 2.12 |
| ETIQGFWLLTKIDHWNNEGERILL | 1.76 |
| ETIQGFWLLTKIDHWNNEAERILL | 2.21 |
| ETIQGFWLLTKIDHWNNEYERILL | 2.27 |
| ETIQGFWLLTKIDHWNNETERILL | 1.78 |
| ETIQGFWLLTKIDHWNNEPERILL | 2.82 |
| ETIQGFWLLTKIDHWNNEVERILL | 1.62 |
| ETIQGFWLLTKIDHWNNEEERILL | 1.69 |
| ETIQGFWLLTKIDHWNNEQERILL | 1.52 |
| ETIQGFWLLTKIDHWNNELERILL | 2.92 |
| ETIQGFWLLTKIDHWNNEWERILL | 2.92 |
| ETIQGFWLLTKIDHWNNENERILL | 4.67 |
| ETIQGFWLLTKIDHWNNEIERILL | 2.47 |
| ETIQGFWLLTKIDHWQNEKERILL | 1.77 |
| ETIQGFWLLTKIDHWFNEKERILL | 2.65 |
| ETIQGFWLLTKIDHWINEKERILL | 3.07 |
| ETIQGFWLLTKIDHWANEKERILL | 2.06 |
| ETIQGFWLLTKIDHWSNEKERILL | 2.12 |

| Variant | protein stability index |
| --- | --- |
| ETIQGFWLLTKIDHWPNEKERILL | 2.99 |
| ETIQGFWLLTKIDHWGNEKERILL | 1.75 |
| ETIQGFWLLTKIDHWENEKERILL | 1.92 |
| ETIQGFWLLTKIDHWMNEKERILL | 1.63 |
| ETIQGFWLLTKIDHWKNEKERILL | 4.29 |
| ETIQGFWLLTKIDHWTNEKERILL | 3.58 |
| ETIQGEWLLTKIDHWNNEKERILL | 2.25 |
| ETIQGTWLLTKIDHWNNEKERILL | 2.69 |
| ETIQGQWLLTKIDHWNNEKERILL | 1.91 |
| ETIQGVWLLTKIDHWNNEKERILL | 2.36 |
| ETIQGCWLLTKIDHWNNEKERILL | 3.16 |
| ETIQGYWLLTKIDHWNNEKERILL | 2.51 |
| ETIQGDWLLTKIDHWNNEKERILL | 1.72 |
| ETIQGKWLLTKIDHWNNEKERILL | 1.3 |
| ETIQGNWLLTKIDHWNNEKERILL | 2.11 |
| ETIQGMWLLTKIDHWNNEKERILL | 1.48 |
| ETIQGHWLLTKIDHWNNEKERILL | 1.94 |
| ETIQGPWLLTKIDHWNNEKERILL | 1.74 |
| ETIQGWWLLTKIDHWNNEKERILL | 1.12 |
| ETIQGRWLLTKIDHWNNEKERILL | 1.91 |
| ETIQGGWLLTKIDHWNNEKERILL | 1.97 |
| ETIQGSWLLTKIDHWNNEKERILL | 2.37 |
